Where two headings read alike, the source gives them in different places.

Sequences and labels used below:
B1: CBFβ alone (human core-binding factor β subunit isoform 2) (other)
chain: MGHHHHHHLEVLFQGPPRVVPDQRSKFENEEFFRKLSRECEIKYTGFRDRPHEERQARFQNACRDGRSEIAFVATGTNLSLQFFPASWQGEQRQTPSREYVDLEREAGKVYLKAPMILNGVCVIWKGWIDLQRLDGMGCLEFDEERAQQEDALAQQAFEEARRRTREFEDRDRSHREEMEVRVSQLLAVTGKKTTRP
B2: Cul5(N), human Cullin5 residues 2-384 with V341R and L345D mutations (post 3C cleavage) (other)
chain: GPMHMGGSTSNLLKNKGSLQFEDKWDFMRPIVLKLLRQESVTKQQWFDLFSDVHAVCLWDDKGPAKIHQALKEDILEFIKQAQARVLSHQDDTALLKAYIVEWRKFFTQCDILPKPFCQLEITLMGKQGSNKKSNVEDSIVRKLMLDTWNESIFSNIKNRLQDSAMKLVHAERLGEAFDSQLVIGVRESYVNLCSNPEDKLQIYRDNFEKAYLDSTERFYRTQAPSYLQQNGVQNYMKYADAKLKEEEKRALRYLETRRECNSVEALMECCVNALVTSFKETILAECQGMIKRNETEKLHLMFSLMDKVPNGIEPMLKDLEEHIISAGLADMVAAAETITTDSEKYREQLDTLFNRFSKLVKEAFQDDPRFLTARDKAYKAVVNDATIFK
notes: also called Cul5(2-384)

In test [1] the target is T1, VifC/EloB/C ternary complex (HIV-1 HXB2 Vif(95-192) / ElonginB 1-118 / ElonginC 17-112) (HIV-1 HXB2; human, UniProt P69720 95-192; Q15370 2-118; Q15369 18-112). The test can be described thus: ITC at 303.15 K in ITC Buffer A, CBFβ titrated to VifC/EloB/C.
T1 sequence (P69720 95-192, tags left off, chain 1 of 3): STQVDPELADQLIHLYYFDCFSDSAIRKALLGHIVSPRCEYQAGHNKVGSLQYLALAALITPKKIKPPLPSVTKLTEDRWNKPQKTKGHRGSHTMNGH
T1 sequence (Q15370 2-118, tags left off, chain 2 of 3): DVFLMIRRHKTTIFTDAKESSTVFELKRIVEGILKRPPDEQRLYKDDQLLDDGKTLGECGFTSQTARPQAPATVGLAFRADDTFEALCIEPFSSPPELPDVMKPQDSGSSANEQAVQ
T1 sequence (Q15369 18-112, tags left off, chain 3 of 3): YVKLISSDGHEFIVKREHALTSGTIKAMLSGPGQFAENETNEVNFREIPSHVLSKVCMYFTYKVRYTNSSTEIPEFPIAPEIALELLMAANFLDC
For test [2], the target named is T1, VifC/EloB/C ternary complex (HIV-1 HXB2 …). The test can be described thus: ITC at 303 K, Cul5(N) in syringe, complex in cell, ITC buffer A.
For test [3], the target named is T2, Vif/EloB/C/CBFβ quaternary complex (full-length HIV-1 HXB2 Vif(1-192) / ElonginB 1-118 / ElonginC 17 (HIV-1 HXB2; human, UniProt P69720 2-192; Q15370 2-118; P83940 18-112; Q13951 2-182). Described as above.
T2 sequence (P69720 2-192, tags left off, chain 1 of 3): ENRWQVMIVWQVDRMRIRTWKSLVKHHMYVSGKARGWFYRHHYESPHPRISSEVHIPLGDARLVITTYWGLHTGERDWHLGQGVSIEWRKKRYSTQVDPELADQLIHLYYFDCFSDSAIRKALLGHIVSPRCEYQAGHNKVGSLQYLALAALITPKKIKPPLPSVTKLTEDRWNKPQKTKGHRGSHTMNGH
T2 sequence (Q15370 2-118, tags left off, chain 2 of 3): as the sequence (Q15370 2-118, tags left off, chain 2 of 3) above
T2 sequence (P83940 18-112, tags left off, chain 3 of 3): as the sequence (Q15369 18-112, tags left off, chain 3 of 3) above
The target of test [4] is T1, VifC/EloB/C ternary complex (HIV-1 HXB2 …). The test can be described thus: ITC at 30 °C, phosphate (ITC buffer B).
Test [5] deals with T2, Vif/EloB/C/CBFβ quaternary complex …. Put plainly: ITC at 30 °C, phosphate (ITC buffer B).
Test [6] has the same target.
Test [7] shares this target. This is another data set of the same source.
Test [8] concerns the target T1, VifC/EloB/C ternary complex (HIV-1 HXB2 …). Put plainly: ITC at 30 °C, HEPES (ITC buffer A).
Test [9] has as its target T2, Vif/EloB/C/CBFβ quaternary complex …. The test can be described thus: ITC at 30 °C, HEPES (ITC buffer A).
The target of test [10] is T1, VifC/EloB/C ternary complex (HIV-1 HXB2 …). Put plainly: ITC at 30 °C, difference of ΔH between ITC buffers A and B.
In test [11] the target is T2, Vif/EloB/C/CBFβ quaternary complex …. Described as above.
Test [12] deals with T1, VifC/EloB/C ternary complex (HIV-1 HXB2 …).
For test [13], the target named is B1. Put plainly: ITC at 303.15 K in ITC Buffer A, Cul5(N) titrated to CBFβ alone.
Test [14] deals with T2, Vif/EloB/C/CBFβ quaternary complex …. The source holds these as a separate data set.
For test [15] the target is unchanged. This is another data set of the same source.
Test [16] deals with T1, VifC/EloB/C ternary complex (HIV-1 HXB2 …). This is another data set of the same source.
For test [17] the target is unchanged. This is another data set of the same source.
Test [18] has the same target. This is another data set of the same source.
Test [19] deals with T2, Vif/EloB/C/CBFβ quaternary complex …. The source holds these as a separate data set.
Test [20] shares this target. This is another data set of the same source.
Test [21] addresses T1, VifC/EloB/C ternary complex (HIV-1 HXB2 …). This is another data set of the same source.

B1: the binding result in [1] is recorded as “no binding”.

For orientation: Kd means a measure of binding affinity in units of concentration. Lower therefore signals higher affinity. With B2, the “-TΔS” value was -15.9 kJ/mol in test [2] and -11.7 kJ/mol in test [3]. Further, the figures for the Kd in test [2] and in [19] were 0.327 µM and 0.005 µM, respectively. The figures for the ΔG in test [2] and in test [3] were -37.7 kJ/mol and -48.1 kJ/mol, respectively. Further, the ΔH in test [2] is -21.8 kJ/mol; in [3] it was -36.8 kJ/mol; in test [4] it was -18.4 kJ/mol; in test [5], -31.4 kJ/mol; in [6], -10100; in test [7], -6310. Also, the ΔH is -21.8 kJ/mol in [8]; -38.5 kJ/mol in [9]; -6430 in test [12]; -3970 in test [14]; -8350 in [15]; -3750 in [16]. For the same molecule, the ΔH in [17] was -5250; in [18], -5250; in [20] it was -8350; in [21] it was -2250. In addition, the N in test [6] worked out at 1; in test [7] it was 0.943; in [12], 0.948; in [15] it was 1.01; in [16], 0.952; in test [17], 1.03. For the same molecule, the values for the N in [18], in test [20] and in test [21] were 1.03, 1.01 and 0.887, respectively. In addition, the ΔS came out at 4.56 in test [6]; 23 in test [7]; 7.96 in test [12]; 21.7 in test [14]; 11.2 in [15]; 17.4 in [16]. The ΔS in [17] is 12.4; in test [18], 12.4; in [20], 11.2; in test [21] it was 22.9. The “ΔΔH (HEPES against phosphate buffer)” value was determined as 3.35 kJ/mol in test [10] and 7.11 kJ/mol in [11]. For the same molecule, the binding result in test [13] is “no binding”.
